Laboratory results as given in publication PMC5913352.

Target: T1, PhoP (non-phosphorylated) (Escherichia coli ExPEC (APEC) FY26 (O2:K1, ST95)?) (UniProt Q8CXZ9)
T1 sequence: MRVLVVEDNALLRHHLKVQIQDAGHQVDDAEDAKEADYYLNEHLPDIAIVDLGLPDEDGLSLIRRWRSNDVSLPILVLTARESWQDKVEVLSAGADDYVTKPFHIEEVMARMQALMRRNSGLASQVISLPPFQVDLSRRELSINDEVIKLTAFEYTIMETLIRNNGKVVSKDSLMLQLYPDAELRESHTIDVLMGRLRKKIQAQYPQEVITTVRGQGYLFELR
Test: EMSA

Q: Which binding does the source give for “CAGGACTGAAACGCTTCCTTCATGTTGGTACTGCTATGTCTTGTACACCTCATACGGGGTCGCTAGTTAAGGAAGAGTCTGCTTCATCAGAAACAGGTGAACATTTAGTGGAGTATACGCATTCAAAAGCAACAATAGAATATCTGATGCGTAAGCAGTGTCCTGATTTACCTTTGTTGGTTGCCCGACCATCAATTATT (double strand)” here?
A: no binding
